Reference: the supplement of paper PMC10266784

B1: library; numbered along this chain (parent)
chain: MAAAAAAAAEQQSSNGPVKKSMREKAVERRSVNKEHNSNFKAGYIPIDEDRLHKTGLRGRKGNLAICVIILLFILAVINLIITLVIWAVIRIGPNGCDSMEFHESGLLRFKQVSDMGVIHPLYKSTVGGRRNENLVITGNNQPIVFQQGTTKLSVENNKTSITSDIGMQFFDPRTQNILFSTDYETHEFHLPSGVKSLNVQKASTERITSNATSDLNIKVDGRAIVRGNEGVFIMGKTIEFHMGGNMELKAENSIILNGSVMVSTTRLPSSSSGDQLGSGDWVRYKLCMCADGTLFKVQVTSQNMGCQISDNPCGNTH

Variants of: B1
Test: SGCB cell-surface expression functional score (HA stain, bin4 vs bin1, normalised to synonymous) (log10 ratio); higher = more cell-surface SGCB (functional)
Procedure, shortened: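 Sorting and sequencing yield the functional score, defined as the log ratio of a variant's highest-bin frequency to its lowest-bin frequency, with the median taken over codons and replicate transductions. The libraries, codon-saturation sets of HA-tagged, YFP-fused human beta-sarcoglycan, went into HEK293 cells stably carrying alpha-, gamma- and delta-sarcoglycan by duplicate lentiviral transduction at MOI <0.1. Cells were stained on ice with Alexa Fluor 647 anti-HA, fixed and split into four 5% intensity bins, and synonymous variants were scaled per section to mean 0, SD 0.5.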

SGCB cell-surface expression functional score (log10): each site, then its substitutions
L257: N -0.61, V 0.45, R -1.52, E -0.43, K -0.27, T -0.91, M 0, A -0.23, Q -1.3, F 0.54, H -0.81, C -0.27, I 0.12, S -1.19, P -0.89, D -0.5, G -0.1, W 0.82
L249: W 0.63, S 0.16, T 0, R -0.27, Q -0.07, P -0.41, E -0.69, N -0.2, A 0.55, K -1.29, I 0.85, D -1.06, G 0.21, C 0.2, Y 0.23, H -1.14, F 0.71, V 0.75, M -0.1
G244: D 0.99, T 0.66, F 1, L 0.86, Q 0.86, P 0.1, N 0.77, Y -0.22, W 0.55, M 1.17, C 0.21, V 0.12, K 0.23, I -0.24, H 0.75, E 0.47, R 0.41, S 0.77, A 0.67
G245: R 0.49, N 0.59, E 1.16, L 0.83, Q 0.99, H 0.52, C 0.61, W 0.92, A 0.6, K 0.91, M 1.44, P 0.4, T 0.57, F -0.16, V -0.07, Y 1.09, I 0.57, D 0.77, S 0.78
F241: M 0.82, N -0.57, G -0.98, A 0.14, R -1.19, H -2.08, T -0.91, S -1.23, Q -1.74, C 0.62, E 0.03, K -1.17, D -0.57, W 1.2, V -0.37, Y -0.82, P -0.89, L 0.35, I 0.2
A251: N 0.23, H 0.44, P 0.04, G 0.05, T 0.52, M 0, C 0.59, K -1.77, Q -2.02, D -0.84, Y -1.33, R -1.16, W -1.85, E -1.22, I -0.87, F -0.98, L -1.06, S 0.32, V 0.46
E248: D 0.58, W 0.116, Y 0.41, C -0.97, K 0.73, V 0.52, F 0.95, L 0.48, R 0.67, A 0.29, P 0.43, M 0, N 0.44, I 0.78, S 0.4, H 0.87, T 0.54, G 0.62, Q -0.13
K250: V 0.37, P -0.39, L 0.54, H 0.87, R 0.59, E 0.06, C 0.5, I 1, N 0.48, F 1.23, T 0.83, W 0.02, Y 1.05, M 0.98, Q 0.65, S 0.33, D 0.83, A 0.91, G 0.55
E252: M 0.8, G 0.39, N 1.08, F 1.22, T 0.88, S 0.51, Q 0.64, P 0.32, L 0.88, A 0.53, C 0.5, W 0.117, R 0.34, K 0.57, V 0.88, H 1.12, I 1.01, D -0.26, Y 1.05
M247: H 0.26, A 0.65, W -1.52, N -0.35, Q -0.04, T -0.51, L 0.8, D -1.1, P -1.08, G 0.38, I 0.34, R -0.83, E -0.44, F 1.03, S 0.26, C 0.91, K -1.56, V 0.47, Y 1.22
N253: M -0.117, G 0.43, L 0.96, Q 1.07, K 0.46, R 0.29, F 0.83, P -0.52, Y 0.45, V 0.9, C 0.55, I 0, A 0.49, H 0.8, S 0.59, W 0.29, D 0.58, E 0.76, T 0.39
I255: F 0.37, N -1.5, Y -1.08, T -0.76, R -0.91, V 0.07, W -1.77, Q -0.37, G -1.03, K -0.13, D -0.53, H -1.4, C 0.39, L 0.57, P -0.82, E -0.85, S -0.08, A 0.2, M 0.52
N246: D 0.51, R 0.2, Y 0.19, F -1.49, W -0.217, I 0.32, P 0.63, M 0.42, G 0.45, V 0.39, C -0.02, K -0.01, E -0.206, T 0.94, Q 0.45, H 0.84, S -0.19, L 0.49, A 0.82
S254: W 0.38, F 0.96, A 0.25, T 0.67, H 0.41, C 0.55, Y 0.7, E 1.37, G 0.08, M 0.79, P -0.77, I 0.12, R 0.12, L 0.74, Q 0.92, N 0.66, D -0.152, V 0.02, K 0.05
I256: W -0.179, G 0.26, T 0.37, E 0.36, M 0.29, R 0.05, C -0.43, D 0.02, N 1.09, K 0.15, H 0.01, A -0.2, Y 0.42, Q -0.26, V 0.31, P -0.12, L 0.37, F 0.01, S 0.62
M243: K -0.64, F 1.18, E 0.01, L 0.43, N 1.08, A 0.83, W -0.253, I 0.18, G 0.64, C 0.71, D -0.38, R -0.97, P 0.21, V 0.49, H 0.52, Y 0.13, T 0.83, S 0.81, Q 0.88
E240: Y 0.83, M 1.09, L 0.37, K 0.46, W 0.422, Q 1, T 1, R 0.44, V 0.99, S 0.98, P -0.9, N 0.97
H242: T 0.66, S 0.93, F 0.89, M 0.2, A 0.4, V 0.71, E 0.36, Y 0.47, R 0.39, N 0.39, W 0.6, I 0.92, D 0.83, L 0.7, K 1.04, C 1, P -0.67, G 0.87, Q 0.68
